Results from paper PMC5113954, “Characterization of the Sucrose Phosphate Phosphatase (SPP) Isoforms from Arabidopsis thaliana and Role of the S6PPc Domain in Dimerization” (PLoS ONE, 2016).

What was measured:
[1] = molecular target: Chimeric Synechocystis SPP fused at its C-terminus to the S6PPc domain of Arabidopsis SPP2 (SynSPP+S6PPc), His-tagged, from E. coli (Synechocystis sp. PCC 6803 | Arabidopsis thaliana); assay: SEC; gel filtration of the purified His-tagged proteins; eluted fractions immunoblotted with anti-His antibodies (Fig 7, S1 Fig)
SynSPP = molecular target: T1, SynSPP (Synechocystis sp. PCC 6803, UniProt P74325); assay: Pi release (SnCl2-molybdate), specific activity; format: biochemical; conditions: 1.25 mM Suc6P; 8 mM MgCl2, pH 7.0, 37 °C
T1 construct: gene slr0953; full length, N-terminal His6 tag (pQE-80L), E. coli BL21(DE3)
T1 sequence (P74325 entry or part of it): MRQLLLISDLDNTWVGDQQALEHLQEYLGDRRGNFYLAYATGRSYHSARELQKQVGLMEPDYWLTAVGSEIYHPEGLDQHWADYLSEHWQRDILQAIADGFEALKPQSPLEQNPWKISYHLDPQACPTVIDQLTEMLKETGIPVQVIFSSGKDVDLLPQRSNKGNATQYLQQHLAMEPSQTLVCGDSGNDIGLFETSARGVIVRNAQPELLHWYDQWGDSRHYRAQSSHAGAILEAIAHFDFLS

S6PP domain of SPP2 = molecular target: T2, S6PP domain of SPP2 (Arabidopsis thaliana, UniProt Q9SJ66); assay: Pi release (SnCl2-molybdate), specific activity; format: biochemical; conditions: 1.25 mM Suc6P; 8 mM MgCl2, pH 7.0, 37 °C
T2 construct: N-terminal S6PP (HAD) domain only, C-terminal S6PPc domain removed; ends at ...IGHFKL by reverse primer P11; N-terminal His10 tag (pET-19b), E. coli; about 30 kDa monomer

SPP3b = molecular target: T3, SPP3b (Arabidopsis thaliana, UniProt Q93XN8); assay: inhibition of Pi release from Suc6P (SnCl2-molybdate); format: biochemical
T3 construct: about 52 kDa subunit, about 90 kDa dimer; cDNA from RIKEN
T3 sequence (Q93XN8 1-423): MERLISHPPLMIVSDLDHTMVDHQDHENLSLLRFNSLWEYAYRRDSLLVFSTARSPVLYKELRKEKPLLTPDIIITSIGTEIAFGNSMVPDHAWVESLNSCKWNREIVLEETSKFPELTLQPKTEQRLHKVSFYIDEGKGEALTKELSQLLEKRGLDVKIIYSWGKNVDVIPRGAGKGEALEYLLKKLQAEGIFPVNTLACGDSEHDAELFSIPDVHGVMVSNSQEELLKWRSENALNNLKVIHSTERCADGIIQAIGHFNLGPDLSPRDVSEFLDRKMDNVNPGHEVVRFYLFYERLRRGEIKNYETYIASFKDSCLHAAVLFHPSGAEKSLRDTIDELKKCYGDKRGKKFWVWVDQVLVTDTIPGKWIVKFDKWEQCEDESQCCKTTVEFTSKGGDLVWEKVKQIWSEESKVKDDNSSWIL

[2] = substrate: O=P(O)(O)OC[C@H]1O[C@@](CO)(O[C@H]2O[C@H](CO)[C@@H](O)[C@H](O)[C@H]2O)[C@@H](O)[C@@H]1O; assay: Pi release (SnCl2-molybdate), nonlinear regression; format: biochemical, Arabidopsis thaliana; conditions: 25 mM HEPES-KOH pH 7.0, 8 mM MgCl2, 37 °C
Source text: Pi release (SnCl2-molybdate), nonlinear regression on SPP2

[3] = molecular target: the molecule itself; assay: SEC; Superose 12 10/300 GL, 25 mM HEPES-KOH pH 7.5, 150 mM KCl, 1 mM PMSF, without Mg2+, 0.4 ml/min; fractions followed by A280 and SPP activity; mass from a calibration curve of standards
[4] = substrate: O=P(O)(O)OC[C@H]1O[C@@](CO)(O[C@H]2O[C@H](CO)[C@@H](O)[C@H](O)[C@H]2O)[C@@H](O)[C@@H]1O; assay: Pi release (SnCl2-molybdate), nonlinear regression; format: biochemical, Arabidopsis thaliana; conditions: 25 mM HEPES-KOH pH 7.0, 8 mM MgCl2, 37 °C; remark: listed apart in the source
Source text: Pi release (SnCl2-molybdate), nonlinear regression on SPP3a

[5] = substrate: O=P(O)(O)OC[C@H]1O[C@@](CO)(O[C@H]2O[C@H](CO)[C@@H](O)[C@H](O)[C@H]2O)[C@@H](O)[C@@H]1O; assay: Pi release (SnCl2-molybdate), nonlinear regression; format: biochemical, Arabidopsis thaliana; conditions: 25 mM HEPES-KOH pH 7.0, 8 mM MgCl2, 37 °C; remark: listed apart in the source
Source text: Pi release (SnCl2-molybdate), nonlinear regression on SPP3b

Molecule: Chimeric Synechocystis SPP fused at its C-terminus to the S6PPc domain of Arabidopsis SPP2 (SynSPP+S6PPc), His-tagged, from E. coli (enzyme)
- stoichiometry N [1]: 2

Molecule: O=P(O)(O)OC[C@H]1O[C@@](CO)(O[C@H]2O[C@H](CO)[C@@H](O)[C@H](O)[C@H]2O)[C@@H](O)[C@@H]1O [Suc6P]
- Pi release (SnCl2-molybdate), specific activity (SynSPP): The activity of each protein or chimera was determined as described in Materials and Methods
- Pi release (SnCl2-molybdate), specific activity (S6PP domain of SPP2): with an activity significantly lower than the native protein

Molecule: OC[C@H]1O[C@@](CO)(O[C@H]2O[C@H](CO)[C@@H](O)[C@H](O)[C@H]2O)[C@@H](O)[C@@H]1O [sucrose]
- Ki (SPP3b): 24 mM

B1: Arabidopsis thaliana sucrose-phosphate phosphatase isoform SPP2, recombinant Nt-Histag (His10-SPP2, pET-19b) (enzyme, UniProt Q9SJ66 1-422, looked up)
chain: MERLTSPPRLMIVSDLDHTMVDHHDPENLSLLRFNSLWEHAYRHDSLLVFSTGRSPTLYKELRKEKPLLTPDITIMSVGTEITYGNSMVPDHGWVEALNNKWDLGIVKQEASNFPELKLQAETEQRPHKVSFYVEKSKAQEVTKELSQRFLKRGLDVKIIYSGGMDLDILPQGAGKGQALAYLLKKLKTEGKLPVNTLACGDSGNDAELFSIPDVYGVMVSNAQEELLKWHAENAKDNPKVIHAKERCAGGIIQAIGHFKLGPNLSPRDVSDFLEIKVENVNPGHEVVKFFLFYERWRRGEVENSEAYTASLKASVHPGGVFVHPSGTEKSLRDTIDELRKYHGDKQGKKFRVWADQVLATDTTPGTWIVKLDKWEQDGDERRCCTTTVKFTSKEGEGLVWEHVQQTWSKETMVKDDSSWII
notes: Sucrose-phosphate phosphatase SPP2 of Arabidopsis thaliana (At2g35840); cDNA from RIKEN, amplified with primers P5 (start codon) and P6 (stop codon); also called Nt-Histag SPP2; SSP2; source: E. coli BL21 (DE3), purified (HisTrap HP, Superose 12); not shown: His10, N-terminal, kept
- Km [2]: 730 ± 320 µM
- kcat [2]: 67.8 s⁻¹
- kcat/Km [2]: 92500 M⁻¹ s⁻¹
- stoichiometry N [3]: 2

B2: Arabidopsis thaliana sucrose-phosphate phosphatase isoform SPP3a, recombinant Nt-Histag (His10-SPP3a, pET-19b) (enzyme, UniProt Q93WU4 1-425, looked up)
chain: MDRLEGPPRLILVADLDCTLVDHDDPENNDLLRFNALWEAHYRHDSLLVYCTGRSFSSYSSLRKKRPLLTPDIAVTSVGSEIVYGGGESTVSDVVWTARLDYKWNRDIVVEETLKFPKLEPQPDKSQEEHKVSFFVGREDAVEIMKVLPGILEERGVDVKLVYSNGYAFDVLPRGAGKQGALTYLLDKLDIEGKQPSNTLVCGDSGNDAELFNISDVYGVMVSNSHEELLQWYEENAKDNPKIFHASERCGAGMIEAIQRFNLGPNVSPRDVMDTENFHGESLNPAHEVVQFYLFYERWRCGEVEKSDKYLQNLKSLSSPLGIFVHPSGVEKPIHEWIDEMENLYGDGKEKKFRIWLDNVTSSHISSDTWLAKFVKHELSEGKVRSCSTKVLLSYKEEKQRLTWMHIHQSWLDESSSDDQEKWIF
notes: Sucrose-phosphate phosphatase SPP3a of Arabidopsis thaliana (At3g54270); amplified from rosette leaf cDNA with primers P7 (start codon) and P8 (stop codon); source: E. coli BL21 (DE3), purified (HisTrap HP, Superose 12); not shown: His10, N-terminal, kept
- Km [4]: 870 ± 390 µM
- kcat [4]: 0.396 s⁻¹
- kcat/Km [4]: 454 M⁻¹ s⁻¹
- stoichiometry N [3]: 2

B3: Arabidopsis thaliana sucrose-phosphate phosphatase isoform SPP3b, recombinant Nt-Histag (His10-SPP3b, pET-19b) (enzyme, UniProt Q93XN8 1-423, looked up)
chain: T3 sequence (Q93XN8 1-423)
notes: Sucrose-phosphate phosphatase SPP3b of Arabidopsis thaliana (At3g52340); cDNA from RIKEN, amplified with primers P9 (start codon) and P10 (stop codon); source: E. coli BL21 (DE3), purified (HisTrap HP, Superose 12); not shown: His10, N-terminal, kept
- Km [5]: 3460 ± 710 µM
- kcat [5]: 3.59 s⁻¹
- kcat/Km [5]: 1040 M⁻¹ s⁻¹
- stoichiometry N [3]: 2
